Here are results for 40 sequences from the nanobody polyreactivity screen of Harvey et al. (2022).

The data set can be described thus: yeast display, Sf9 membrane polyspecificity reagent, FACS + sequencing; frameworks hold sequencing errors. In a few lines:
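Galactose induction of a Saccharomyces cerevisiae BJ5465 synthetic nanobody display library ran 36–48 hours. The cells were then stained for 1 hour at 4 °C with 10% biotinylated, detergent-solubilized Sf9 membrane reagent, pulled down on streptavidin microbeads and FACS-sorted into low and high (top ~1%) gates on expression and reagent-binding fluorescence. Labels for polyreactivity follow the gate of origin.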
Consider “QVQLVESGGGLVQAGGSLRLSCAASGRILNVYAMGWYRQAPGKERELVAAINYRGTNTYYADSVKGRFTISRDNAKNTVYLQMNSLKPEDTADYYCAARRHVYLRGSTFEFNYWGQGTHVTVSS”, for which the “polyreactivity (PSR sort gate)” value is “high polyreactivity”.
As for “QVQLVESGGGLVQAGGSLRLSCAASGRILNWNVMGWYRQAPGKERELVAGISSDGSTYADSVKGRFTISRDNAKNTVYFQMNSLKPEDTAVYYCAADRVGLSRGYDYWGQGTQVTVSS”, the “polyreactivity (PSR sort gate)” value was “low polyreactivity”.
The entry for “QVQLVESGGGLVQAGGSLRLSCAASGRILPLYAMGWSRQAPGKERELVATMILDGDSTYYADSVKGRFTISRDNAKNTVYLQMNSQKPEDTAVYYCNDDYTPWGRGYPYDYWGQGSQVTVSS” is “low polyreactivity”; for “QVQLVESGGGLVQAGGSLRLSCAASGRILPSNAMGWYRQAPGKDRELVATISSSGGDTYYADSVKGRFTISRDNAKNTVYLQMKSLKPEDTAVYSCNAAGRTPSTGFDYDYWGQGTQVTVSS” it is “low polyreactivity”; for “QVQLVESGGGLVQAGGSLRLSCAASGRILPYNVMGWFRQARGKEREFVAAITGSGGDTYYADSVKGRFTISRDNAKNTVYLQMNSLKPEDTAVYYCAAAPYIGGSFGQTPGSGYWGQGTQVTVSS” it is “low polyreactivity”.
As to “QVQLVESGGGLVQAGGSLRLSCAASGRILPYYAMGWYRQEPGKERELVAAITGGGGSTYYADSVKGRFTISRDNAKNTVYLQMNSLKPEDTAVYYCAKPRGRASLALYRFSLYYYWGQGTQVTVSS”, the “polyreactivity (PSR sort gate)” value was “high polyreactivity”.
As to “QVQLVESGGGLVQAGGSLRLSCAASGRILRGYAMGWYRQAPGKERELVAAINSGGDTYYADSVKGRFTISRDNAKNTVYLQMNSLKPEDTAVYYCASDYWGWIYLYGDHLVDYRGQGTQVTVSS”, the “polyreactivity (PSR sort gate)” value is reported as “low polyreactivity”.
The entry for “QVQLVESGGGLVQAGGSLRLSCAASGRILRHNAMGWYRQAPGKERELVAAITRSGGRTYYADSVKGRFTISRDNAKNTVYLQMNSLKPEDTAVYDCAAGDYGWVPYNLRGSRMNYWGQGTQVTVSS” is “high polyreactivity”; for “QVQLVESGGGLVQAGGSLRLSCAASGRILRQYAMGWYRQEPGKERELVAAISRSGASTFYADSVKGRFTISRDNAKNTVYLPMNSLKPEYTAVYYCASKRYLKYGYWGQGTQVTVSS” it is “high polyreactivity”; for “QVQLVESGGGLVQAGGSLRLSCAASGRILRTYAMGWYRQAPGKERELVAAITRGGSTYYADSVKGRFTISRDNAKNTVYLQMNSLKPEDTAVYYCNKYKSPYITLSQYGYWGQGTQVTVSS” it is “high polyreactivity”.
With “QVQLVESGGGLVQAGGSLRLSCAASGRILRYKAMGWYRQAPGKDRELVAAMSSGGSTYADSVKGRFTISRDNAKNTVYLQMNSLKPEDTAVYYCAVQSTRRGPYSWPYGYWGQGTQVTVSS”, the “polyreactivity (PSR sort gate)” value is recorded as “high polyreactivity”.
For “QVQLVESGGGLVQAGGSLRLSCAASGRILRYNAMGWYRQAPGKERELVASISGNGGSTYYADSVKGRFTISRDNAKNTVYLQMNSLKPEDTAVYYCNKYYYSSRGQKEYDYWGQGTQVTVSS”, the “polyreactivity (PSR sort gate)” value is on record as “low polyreactivity”.
The entry for “QVQLVESGGGLVQAGGSLRLSCAASGRILRYYAMGWYRQAPGKERELVASITSGGSTYYADSVKGRFTISRDNAKNTVYLQMNSLKQEDTAVYYCAADPVYLKKLLYYVGQAYYYWGQGTQVTVSS” is “high polyreactivity”; for “QVQLVESGGGLVQAGGSLRLSCAASGRILSVYAMGWYRQAPGKERELDAGISKRGGRTYYADSVKGRFTISRDNAKNTVYLQMKSLTPEDTAVYYCAADYSSYWGRDYWGQGTQVTVSS” it is “high polyreactivity”; for “QVQLVESGGGLVQAGGSLRLSCAASGRILSYYAMGWYRQAPGKERELVATISASGGSTYYADSVKGRFTISRDNAKNTVYLQMNSLKPEDTAVYYCAAARVPAYYLRYFYRTTYDYWGQGTQVTVSS” it is “high polyreactivity”.
Turning to “QVQLVESGGGLVQAGGSLRLSCAASGRILTPYTMGWYRQAPGKERELVAAISKRGTSTHYADSVKGRFTISRDNAKNTVYLLMNSLKPEDTAVYYCNAVYRSSQYDYWGQGTQVTVSS”, the “polyreactivity (PSR sort gate)” value is recorded as “high polyreactivity”.
With “QVQLVESGGGLVQAGGSLRLSCAASGRILTSNAMGWSRQAPGKERELVAAISWSGGSTYYADSVKGRFTISRDNAKNTVYLQMNSLKPEDTAVYYCAAPFTTTFDYWGQGTQVTVSS”, the “polyreactivity (PSR sort gate)” value is recorded as “low polyreactivity”.
For the sequence “QVQLVESGGGLVQAGGSLRLSCAASGRILVRNAMGWYRQAPGKERELVAAIRRGTSTNYADSVKGRFTISRDNAKNTVYLQMNSLKPEDTAVYYCAVRAASPYLDGAWRRRYDYWGQGTQVTVSS”, the “polyreactivity (PSR sort gate)” value was “low polyreactivity”.
Take “QVQLVESGGGLVQAGGSLRLSCAASGRILYDYDMGWYRQAPGKERELVATISRGGGTNYADSVKGRFTISRDNAKNTVYLQMNSLKPEDTAVYYCAADRWYSRYTRYGYWGQGTQVTVSS”: the “polyreactivity (PSR sort gate)” value is recorded as “low polyreactivity”.
As to “QVQLVESGGGLVQAGGSLRLSCAASGRILYGYAMGWYRQAPGKERELVASIPWSGGSTYADSVKGRFTISRDNAKNTVYLQMNSLKPEDTAVYYCATRRGPKWQWLTYGYWGQGTQVTVSS”, the “polyreactivity (PSR sort gate)” value is “low polyreactivity”.
Consider “QVQLVESGGGLVQAGGSLRLSCAASGRILYGYTMGWYRQAPGKEREFVATITRGGSTYYADSVKGRFTISRDNAKNTVYLQMNSLKPEDTAVYYCAAELSLATPTVPWYLYNYWGQGTQVTVSS”, for which the “polyreactivity (PSR sort gate)” value is on record as “low polyreactivity”.
“QVQLVESGGGLVQAGGSLRLSCAASGRILYIYAMGWYRQAPGKERELVAAIRSSGGSTYYADSVKGRFTISRDNAKNSVYLQMNSLKPDDTAVYYCAATSRVSKSHLYGYWGQGTQVTVSS”: the “polyreactivity (PSR sort gate)” value is given as “high polyreactivity”.
Regarding “QVQLVESGGGLVQAGGSLRLSCAASGRILYLYTMGWYRQAPGKERELVAAISRGGSTYYADSVKGRFTISRDNAKNTVYLQMNSLKPEDTAVYYCSADARGYQFNYWGQGTLVTVSS”, the “polyreactivity (PSR sort gate)” value is given as “high polyreactivity”.
The entry for “QVQLVESGGGLVQAGGSLRLSCAASGRILYRYAMGWYRQAPGKERELVAAISYSGGSTSYADSVKGRFTISRDNAKNTVYVQMNSLKPEDTAVYYCAAAYYLLRYKKRYDYWGQGTQVTVSS” is “high polyreactivity”.
With “QVQLVESGGGLVQAGGSLRLSCAASGRILYRYAMGWYRQAPGKERELVADISWSGGSRYYADSVKGRFTISRDNAKNTVYLQMNSLKPEDTAVYYCAAFRLWYSTFDYWGQGTQVTVSS” the entry was “high polyreactivity”; with “QVQLVESGGGLVQAGGSLRLSCAASGRILYSYAMGWYRQAPGKEREFVADIRRSGGSTYYADSVKGRFTISRDNAKNTVYLQMNSLKPEDTAVYYCAKSQSAKGGYDYWGQGTQVTVSS”, “high polyreactivity”; with “QVQLVESGGGLVQAGGSLRLSCAASGRILYSYAMGWYRQAPGKERELVASISWSGGSTYYADSVKGRFTISRDNAKNTVYLQMNSLKPEDTAVYYCAKKYYSVYQTDVSGRYDYWGQGTQVTVSS”, “low polyreactivity”.
Take “QVQLVESGGGLVQAGGSLRLSCAASGRILYSYPMGGYRQAPGKERELVASISLSGGRTYADSVKGRFTISRDNAKNTVFLQMNSLKPVDTAVYYCNARIRTSRYLWPFDYWGQGTQVTVSS”: the “polyreactivity (PSR sort gate)” value is “high polyreactivity”.
With “QVQLVESGGGLVQAGGSLRLSCAASGRILYVNTMGWYRQAPGKERELVAGITSRVGSTYYADSVKGRFTISRDNGKNTVYLQMKSLKPEYTAVYYCNARSTWRHRRDQVDFDYWGQGTQVTVSS” the entry was “low polyreactivity”.
In the case of “QVQLVESGGGLVQAGGSLRLSCAASGRINAMGWYRQAPGKERELVAVITLRGGSTYYADSVKGRFTISRDNAKNTVYLQMNSLKPEDTAVYYCAAVYRWPDAKYDYWGQGTQVSVSS”, the “polyreactivity (PSR sort gate)” value was “low polyreactivity”.
The entry for “QVQLVESGGGLVQAGGSLRLSCAASGRIRPRNAMGWYRQAPGKERELVAGISSDGSTNYADSVKGRFTISRDNAKNTVYLQMNSLKQEDTAVYYCAADGVYDPNLYGYWGQGTQLTVSS” is “low polyreactivity”.
On to “QVQLVESGGGLVQAGGSLRLSCAASGRISAYAMGWYRQAPGKERELVAAISSRGGRTYYADSVKGRFTISRDNAKTTVYLQMNSLKPEDTAVYYCNALRPWEFDHWGHGTQVTVSS”, for which the “polyreactivity (PSR sort gate)” value is “high polyreactivity”.
With “QVQLVESGGGLVQAGGSLRLSCAASGRISAYYAMGWYRQAPGKERELVAVITSGGRTNYADSVKGRFTISRDNAKNTVYLQMNSLKPEDTAVYYCAARSRVSPRYDYWGQGTQVTVSS”, the “polyreactivity (PSR sort gate)” value is listed as “high polyreactivity”.
In the case of “QVQLVESGGGLVQAGGSLRLSCAASGRISGFNAMGWYRQAPGKDRELVAAISYRGGSTSADSVKGRFTISRDNAKNTVYLQMNSLKPEDTAVYYCAADVRFYQYSDYDYWGQGTQVTVSS”, the “polyreactivity (PSR sort gate)” value is listed as “low polyreactivity”.
The entry for “QVQLVESGGGLVQAGGSLRLSCAASGRISGRNAMGWYRQAPGKERELVAVITRGDTNYADSVKGRFTISRDNAKNTVYLQMNSLKPEDTAVYYCAKEPLASGWGYDYWGQGTQVTVSS” is “high polyreactivity”; for “QVQLVESGGGLVQAGGSLRLSCAASGRISGRYAMGWYRQAPGKERELVAAITGRGGGTFYADSVKGRFTISRDNAKNTVYLQMNSLKPEDTAVYYCNTDYGSSYNYCGQGTQVTVSS” it is “high polyreactivity”; for “QVQLVESGGGLVQAGGSLRLSCAASGRISGSYVMGWYRQAPGKESELVAGISGRGGSTYYADSVKGRFTISRDNAKNTVYLQMYSLKPEDTAVYYCAVVDRTSKGNSYYWGQGTQVTVSS” it is “high polyreactivity”.
“QVQLVESGGGLVQAGGSLRLSCAASGRISGVNAMGWYRQAPGKERELVATISGSGGRTYYADSVKGRFTISRDNAKNTVYLQMNSLKPEDTAVYYCAAGPPRADYDYWGQGTQVTVSS”: the “polyreactivity (PSR sort gate)” value is “low polyreactivity”.
Turning to “QVQLVESGGGLVQAGGSLRLSCAASGRISKKYAMGWYRQAPGKERELVAAIRGSGGGTYYADSVKGRFTISRDNAKNTVYLQMNSLKPEDTAVYYCNAASRHSTAPITGYDSWGQGTQVTVSS”, the “polyreactivity (PSR sort gate)” value is recorded as “high polyreactivity”.
Turning to “QVQLVESGGGLVQAGGSLRLSCAASGRISKRYTMGWYRQAPGKERELVAAITNSGGTTYYADSVKGRFTISRDNAKNTVYLQMNSLKPEDTAVYYCNKPYGAETAHREFDYWGQGTQVTVSS”, the “polyreactivity (PSR sort gate)” value is on record as “low polyreactivity”.
